From PMC5533101 (Journal of Alzheimer's disease : JAD, 2004) come the findings set out here.

In the assay the target is AβO(1-42), oligomeric non-fibrillar Aβ prepared from the peptide Aβ_(1-42) (UniProt P05067 672-713). Kind of assay: SPR. On the technique in general: In SPR one partner is held on a chip, and binding of the other changes the refractive index at the surface.

B1: TR#2, recombinant TR segment containing the extracellular domain (ectodomain) (domain or fragment, UniProt Q9UIK5 56-301, looked up)
chain: CSGYDDRENDLFLCDTNTCKFDGECLRIGDTVTCVCQFKCNNDYVPVCGSNGESYQNECYLRQAACKQQSEILVVSEGSCATDAGSGSGDGVHEGSGETSQKETSTCDICQFGAECDEDAEDVWCVCNIDCSQTNFNPLCASDGKSYDNACQIKEASCQKQEKIEVMSLGRCQDNTTTTTKSEDGHYARTDYAENANKLEESAREHHIPCPEHYNGFCMHGKCEHSINMQEPSCRCDAGYTGQHCE
As for B1, the Kd (commonly the constant that tells how readily two partners part at equilibrium) came out at 0.0768 µM.
